Where two headings read alike, the source gives them in different places.
How the values were obtained:
[1] = human, in vivo, sc
Experimental: (§1) This was a phase 1, randomized, double‐blind, two‐center, two‐treatment, single‐dose, two‐period, crossover, 8‐hour HEC study in healthy subjects. The study was conducted simultaneously in 2018 at two clinical sites (Almazov National Medical Research Center, Saint Petersburg, Russia, and Endocrinology Research Centre, Moscow).
(§2) NovoRapid® Penfill® (Novo‐Asp), as a solution for injection (100 IU/mL), by NovoNordisk, Denmark was used as a reference drug. Both drugs were administered subcutaneously into the abdomen using a BD Micro‐Fine 0.5‐mL insulin syringe with an 8‐mm needle. In this study, the dose of insulin aspart was 0.3 IU/kg for each formulation.
(§3) The next morning HEC was performed. Subjects remained in a supine position for the entire procedure. The time of dosing of the investigated insulins was defined as a zero point. Plasma glucose levels were measured to confirm euglycemia state 60 and 30 minutes prior to the dosing. The target value for blood glucose concentrations during the clamp procedure was defined as 90 mg/100 mL and the acceptable glycemic range in this study was set as 80–100 mg/100 mL. After subcutaneous injection of the investigated insulin, intravenous 20% glucose infusion was started once the baseline plasma glucose level decreased by more than 5 mg/100 mL. The glucose infusion rate (GIR) was controlled and adjusted manually using an infusion pump (Infusomat fmS, B. Braun Melsungen AG, Germany) to maintain plasma glucose concentrations of 80–100 mg/100 mL. HEC lasted 8 hours, and during the entire procedure glycemia was measured using a glucose analyzer (StatStrip, Nova Biomedical, USA) and GIR was adjusted accordingly every 5 minutes. The GIR was documented throughout the procedure and was used to reflect the activity of insulin. Glucose infusion could be discontinued earlier if GIR equaled 0 mg/kg/min at three consecutive measurements 6 hours or more after dosing. Blood samples for PK assessment were obtained for 8 hours postdose.
(§4) Pharmacokinetics. During each HEC 21 samples (each 9 mL of venous blood) were collected from all participants at regular time intervals to assess the concentrations of insulin aspart and C‐peptide: 60, 30, 0 minutes predose and 10, 20, 30, 40, 50, 60, 75, 90, 105, 120, 135, 150, 165, 240, 300, 360, 420, 480 minutes postdose. To obtain plasma samples for the bioanalytical part the blood samples were centrifuged at 3000 rpm for 15 minutes, then the supernatant was transferred into clean tubes. Insulin determination in plasma was performed by a validated enzyme immunoassay (EIA) method using a Personal Lab (Adaltis S.r.l., Italy) analyzer. A Mercodia Iso‐Insulin ELISA kit (Mercodia, Sweden) was used to measure total endogenous human insulin and insulin aspart concentrations and then a Mercodia Insulin ELISA kit (Mercodia) was used to quantify specifically the endogenous human insulin concentration. […] The validated lower (LLOQ) and upper (ULOQ) levels of quantification for total insulin assay were 10.00 and 300.00 μIU/mL, and for human insulin assay they were 10.00 and 150.00 μIU/mL.

[2] = Pharmacokinetics of insulin aspart in plasma during hyperinsulinemic euglycemic clamp (HEC); conditions: healthy male volunteers, N = 26, arithmetic mean (SD); for AUCins.0‐t: single s.c. 0.3 IU/kg into abdomen, ELISA double measurement; for AUCins.0‐t / Cins.max: 8-h HEC, plasma; for Cins.max: ELISA; for AUCins.0‐∞: extrapolated to infinity
Experimental: as §1, §2, §3, §4

healthy male volunteers [3] = experiment: Safety and tolerability (adverse events) in HEC study; assay type: in vivo, human; conditions: single s.c. 0.3 IU/kg, N = 26; for Number of adverse events (AEs): all transitory and mild, most probably related to the HEC procedure; for Tolerability of single dose: healthy male volunteers
Experimental: Safety evaluation. The safety and tolerability of both studied drugs were also assessed. Throughout the trial, adverse events (AEs) were monitored and all participants underwent physical examination, vital signs assessment, electrocardiogram (ECG) recording, and laboratory blood and urine testing.

healthy male volunteers [4] = experiment: Pharmacodynamics (glucose infusion rate) in hyperinsulinemic euglycemic clamp (HEC); assay type: in vivo, human; conditions: N = 26, single s.c. 0.3 IU/kg, arithmetic mean (SD); for AUCGIR0‐t / GIRmax: 8-h HEC
Experimental: The PD effect of insulin aspart was evaluated using the manual euglycemic clamp technique, as described previously[7] with adaptations described below.
Before the clamp procedure. Subjects were hospitalized approximately 12 hours before each drug administration. After the baseline physical examination, vital signs measurements, alcohol breath test, and urine drug testing were performed to confirm compliance with the study restrictions. All participants were given a standardized light meal in the evening before the clamp. Subjects fasted for at least 10 hours before the dosing and remained fasted until the end of the clamp.
During the clamp procedure. The next morning HEC was performed.
Pharmacodynamics. As described above, blood glucose values determined every 5 minutes during HEC were used to measure and manually adjust GIR.

Row | Substance | t1/2 [1] | AUCins.0‐t [2] | Cins.max ([2]; single s.c. 0.3 IU/kg) | tmax ([2]; single s.c. 0.3 IU/kg) | AUCins.0‐∞ ([2]; single s.c. 0.3 IU/kg) | Cases of hyperbilirubinemia (healthy male volunteers [3]) | Cases of phlebitis (healthy male volunteers [3]) | Number of adverse events (AEs) (healthy male volunteers [3]) | Tolerability of single dose (healthy male volunteers [3]) | AUCGIR0‐t (healthy male volunteers [4]) | GIRmax (healthy male volunteers [4]) | tGIRlag (onset of action) (healthy male volunteers [4]) | tGIRmax (time to reach GIRmax) (healthy male volunteers [4]) | t1/2 ([2]; single s.c. 0.3 IU/kg)
1 | insulin aspart [GP‐Asp] | 0.88 (0.31) h | 750.86 (163.48) μLU/mL × h | 286.95 (86.53) μLU/ml/mL | 1.51 (0.53) h | 776.90 (166.33) μLU/ml/mL × h | One | one | two | well tolerated | 43.48 (12.43) mg/kg × 60 min | 11.21 (3.43) mg/kg/min | 0.48 (0.21) | 2.75 (0.94) | –
2 | insulin aspart [Novo‐Asp] | – | 716.37 (199.60) μLU/mL × h | 245.58 (72.70) μLU/ml/mL | 1.37 (0.49) h | 745.70 (209.72) μLU/ml/mL × h | One | one | two | well tolerated | 42.81 (13.28) mg/kg × 60 min | 10.65 (3.3) mg/kg/min | 0.44 (0.18) | 2.82 (1.02) | 0.93 (0.36) h

Source: PMC9541865, “Clinical Pharmacology of Insulin Aspart Biosimilar GP40071: Pharmacokinetic/Pharmacodynamic Comparability in Hyperinsulinemic Euglycemic Clamp Procedure” (Clinical Pharmacology in Drug Development, 2022)
